Assay results reported in the Immune Epitope Database (IEDB).

Tests used:
HLA-B*40:01 = assay: IEDB peptide-MHC binding, purified MHC/competitive/radioactivity; filed as Kd, often an IC50 or EC50 that approximates it; ≥ and ≤ were set here for values at or beyond the usual limits of such assays
HLA-B*40:02 = assay: as above
HLA-B*45:01 = assay: as above
HLA-B*44:02 = assay: as above
HLA-B*44:03 = assay: as above
HLA-B*18:01 [1] = assay: as above
HLA-A*68:01 = assay: as above
HLA-B*35:01 = assay: as above
HLA-A*33:01 = assay: as above; details: source organism: Dengue virus 2 Jamaica/1409/1983
HLA-B*27:03 = assay: IEDB peptide-MHC binding, purified MHC/competitive/fluorescence; filed as Kd, often an IC50 or EC50 that approximates it; ≥ and ≤ were set here for values at or beyond the usual limits of such assays; details: source organism: Homo sapiens
HLA-A*02:01 = assay: as above; details: source organism: Homo sapiens
HLA-B*18:01 [2] = assay: as above; details: source organism: Homo sapiens
HLA-B*07:02 = assay: IEDB peptide-MHC binding, purified MHC/direct/fluorescence; filed as Kd, often an IC50 or EC50 that approximates it; ≥ and ≤ were set here for values at or beyond the usual limits of such assays; details: source organism: Homo sapiens
[3] = source organism: Mammarenavirus guanaritoense
[4] = source organism: Mammarenavirus machupoense
[5] = source organism: SARS coronavirus Tor2
[6] = source organism: Mammarenavirus choriomeningitidis
[7] = source organism: Dengue virus 2 Jamaica/1409/1983
[8] = source organism: Dengue virus 3 Sri Lanka/1266/2000

**Q.** With ADSEITETY as the sequence, how does the Kd (HLA-B*40:01; [3]) read?
**A.** ≥ 37.6 µM

**Q.** What about the Kd (HLA-B*40:02; [3]) of the same sequence?
**A.** ≥ 77.2 µM

**Q.** What about the Kd (HLA-B*45:01; [3]) of the same sequence?
**A.** 17 µM

**Q.** What about the Kd (HLA-B*44:02; [3]) of the same sequence?
**A.** 6.54 µM

**Q.** And the Kd (HLA-B*44:03; [3])?
**A.** 2.77 µM

**Q.** And the Kd (HLA-B*18:01 [1]; [3])?
**A.** 1.39 µM

**Q.** Which results are given for AEWLEMICF?
**A.** Kd (HLA-B*40:01; [4]): 2.01 µM; Kd (HLA-B*40:02; [4]): 0.0194 µM; Kd (HLA-B*45:01; [4]): 0.0825 µM; Kd (HLA-B*44:02; [4]): 0.0446 µM; Kd (HLA-B*44:03; [4]): 0.0681 µM; Kd (HLA-B*18:01 [1]; [4]): 0.164 µM

**Q.** How did the Kd (HLA-B*40:01; [5]) turn out when EEVVENPTI was run?
**A.** 2.73 µM

**Q.** What about the Kd (HLA-B*40:02; [5]) of the same sequence?
**A.** 4.88 µM

**Q.** What about the Kd (HLA-B*45:01; [5]) of the same sequence?
**A.** 1.22 µM

**Q.** What about the Kd (HLA-B*44:02; [5]) of the same sequence?
**A.** 4.54 µM

**Q.** What about the Kd (HLA-B*44:03; [5]) of the same sequence?
**A.** 0.778 µM

**Q.** What about the Kd (HLA-B*18:01 [1]; [5]) of the same sequence?
**A.** ≥ 45.6 µM

**Q.** Which results are given for FEDQFLPFMS?
**A.** Kd (HLA-B*40:01; [6]): 3.89 µM; Kd (HLA-B*40:02; [6]): 0.312 µM; Kd (HLA-B*45:01; [6]): 3.5 µM; Kd (HLA-B*44:02; [6]): 14.6 µM; Kd (HLA-B*44:03; [6]): ≥ 27.2 µM; Kd (HLA-B*18:01 [1]; [6]): 2.39 µM

**Q.** With FENKTTLPV as the sequence, how does the Kd (HLA-B*40:01; [5]) read?
**A.** 0.115 µM

**Q.** And the Kd (HLA-B*40:02; [5])?
**A.** 0.0253 µM

**Q.** What about the Kd (HLA-B*45:01; [5]) of the same sequence?
**A.** 0.851 µM

**Q.** What about the Kd (HLA-B*44:02; [5]) of the same sequence?
**A.** 17.1 µM

**Q.** And the Kd (HLA-B*44:03; [5])?
**A.** 1.87 µM

**Q.** What about the Kd (HLA-B*18:01 [1]; [5]) of the same sequence?
**A.** 0.666 µM

**Q.** Which results are given for FTNMEAQLIR?
**A.** Kd (HLA-A*68:01; [7]): 0.0193 µM; Kd (HLA-B*35:01; [7]): 9.88 µM; Kd (HLA-A*33:01): 0.108 µM

**Q.** FTNMEAQLVR was tested. Which Kd (HLA-A*68:01; [8]) did it give?
**A.** 0.0792 µM

**Q.** What about the Kd (HLA-B*35:01; [8]) of the same sequence?
**A.** 11.8 µM

**Q.** What does the source list for GEDTVWEVQG?
**A.** Kd (HLA-B*40:01; [5]): ≥ 29.3 µM; Kd (HLA-B*40:02; [5]): 18.4 µM; Kd (HLA-B*45:01; [5]): 4.03 µM; Kd (HLA-B*44:02; [5]): ≥ 45 µM; Kd (HLA-B*44:03; [5]): 16.3 µM; Kd (HLA-B*18:01 [1]; [5]): ≥ 70.5 µM

**Q.** For GVRQFSGWM, which Kd (HLA-B*27:03) is on record?
**A.** ≥ 20 µM

**Q.** What about the Kd (HLA-A*02:01) of the same sequence?
**A.** ≥ 20 µM

**Q.** What about the Kd (HLA-B*18:01 [2]) of the same sequence?
**A.** ≥ 20 µM

**Q.** And the Kd (HLA-B*07:02)?
**A.** 0.0221 µM

**Q.** Which Kd (HLA-B*40:01; [3]) does the source give for IDFLIMRNL here?
**A.** 15.5 µM

**Q.** And the Kd (HLA-B*40:02; [3])?
**A.** 0.224 µM

**Q.** And the Kd (HLA-B*45:01; [3])?
**A.** 18 µM

**Q.** And the Kd (HLA-B*44:02; [3])?
**A.** 14.5 µM

**Q.** What about the Kd (HLA-B*44:03; [3]) of the same sequence?
**A.** 16.1 µM

**Q.** What about the Kd (HLA-B*18:01 [1]; [3]) of the same sequence?
**A.** 15.2 µM

**Q.** Which Kd (HLA-B*40:01; [4]) does the source give for KEINLLSQT here?
**A.** ≥ 34.1 µM

**Q.** And the Kd (HLA-B*40:02; [4])?
**A.** 0.0311 µM

**Q.** What about the Kd (HLA-B*45:01; [4]) of the same sequence?
**A.** 6.69 µM

**Q.** What about the Kd (HLA-B*44:02; [4]) of the same sequence?
**A.** 17 µM

**Q.** And the Kd (HLA-B*44:03; [4])?
**A.** 14.3 µM

**Q.** And the Kd (HLA-B*18:01 [1]; [4])?
**A.** ≥ 77.5 µM
